Data published in patent US20220128561A1 (Bayer, published 2022).
Where two headings read alike, the source gives them in different places. Values belong to the binder of their own block, whether it stands above or below them.

How the values were obtained:
[1] = biological target: T1, WT rat sGC heme free (tween treated) (rat, UniProt P19686 1-690; P20595 1-619); assay: capture ELISA: IgG coated at 5 ug/mL, tween-treated (heme-free) WT rat sGC titrated, streptavidin-HRP, OD 450 nm; the axis gives the sGC concentration
T1 construct: alpha1-StrepII/beta1 heterodimer made in Sf9 cells and purified; The heme was removed with 0.5% Tween20 for 20 min at 37 C; It has the same polypeptides as the heme-loaded form and differs only in lacking the heme; also called heme free sGC (as obtained by tween treatment); heme free version of wt rat sGC; not shown: C-terminal strep-tag (StrepII)
T1 sequence (looked up) 1: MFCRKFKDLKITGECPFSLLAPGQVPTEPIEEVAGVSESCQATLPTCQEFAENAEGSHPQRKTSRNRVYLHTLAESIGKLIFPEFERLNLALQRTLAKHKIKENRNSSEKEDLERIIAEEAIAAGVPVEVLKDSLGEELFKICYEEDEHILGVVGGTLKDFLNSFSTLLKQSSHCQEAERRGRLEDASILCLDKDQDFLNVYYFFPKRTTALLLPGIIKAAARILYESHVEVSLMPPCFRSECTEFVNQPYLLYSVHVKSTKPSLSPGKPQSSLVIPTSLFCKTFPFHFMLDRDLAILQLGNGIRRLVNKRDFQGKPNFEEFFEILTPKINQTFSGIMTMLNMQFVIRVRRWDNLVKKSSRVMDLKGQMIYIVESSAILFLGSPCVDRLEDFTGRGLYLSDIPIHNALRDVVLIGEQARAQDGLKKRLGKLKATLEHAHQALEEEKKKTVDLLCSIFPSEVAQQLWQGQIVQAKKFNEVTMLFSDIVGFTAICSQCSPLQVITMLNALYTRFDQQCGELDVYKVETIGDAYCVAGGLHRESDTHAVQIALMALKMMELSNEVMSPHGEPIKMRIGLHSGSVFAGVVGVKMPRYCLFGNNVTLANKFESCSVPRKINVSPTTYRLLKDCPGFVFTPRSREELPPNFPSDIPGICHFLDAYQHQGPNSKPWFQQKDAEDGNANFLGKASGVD
T1 sequence (looked up) 2: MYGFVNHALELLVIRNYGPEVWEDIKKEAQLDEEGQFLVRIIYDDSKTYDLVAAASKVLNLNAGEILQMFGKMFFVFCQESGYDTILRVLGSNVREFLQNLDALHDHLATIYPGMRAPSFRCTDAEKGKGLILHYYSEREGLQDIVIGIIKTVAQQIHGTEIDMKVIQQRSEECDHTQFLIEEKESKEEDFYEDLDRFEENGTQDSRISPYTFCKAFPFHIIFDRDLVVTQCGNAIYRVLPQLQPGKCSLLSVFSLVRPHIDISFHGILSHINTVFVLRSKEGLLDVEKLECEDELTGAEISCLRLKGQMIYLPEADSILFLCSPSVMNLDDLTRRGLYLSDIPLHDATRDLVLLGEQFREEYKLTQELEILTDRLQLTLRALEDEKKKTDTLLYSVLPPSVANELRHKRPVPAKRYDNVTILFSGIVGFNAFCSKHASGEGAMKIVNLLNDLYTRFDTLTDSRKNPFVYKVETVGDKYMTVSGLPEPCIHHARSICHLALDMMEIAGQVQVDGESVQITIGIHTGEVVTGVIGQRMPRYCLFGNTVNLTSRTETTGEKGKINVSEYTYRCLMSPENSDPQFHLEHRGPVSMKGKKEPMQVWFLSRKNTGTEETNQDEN
Description: (§1) To determine by ELISA the capacity of individual IgGs to discriminate the apo (heme free) version of wt rat sGC from the heme-loaded version, 5 μg/mL of each individual IgG were coated in Nunc® maxisorp 96-well plates overnight at 4° C. After a minimum 16 hours adsorption period, coated maxisorp plates were blocked with PBS-3% skimmed milk (v/v) prior to the addition of purified rat wt sGC proteins previously treated with 0.5% (v/v) tween to remove the heme group, or not-treated thus preserving heme group. Successful entrapment of heme free or heme-loaded wt rat sGC molecules by reformatted IgG molecules was detected with streptavidin-HRP.

[2] = biological target: T1, WT rat sGC heme free (tween treated); assay: SPR
[3] = biological target: T1, WT rat sGC heme free (tween treated); assay: capture ELISA: IgG coated at 5 ug/mL, tween-treated (heme-free) WT rat sGC titrated, streptavidin-HRP, OD 450 nm; the axis gives the sGC concentration; remark: listed apart in the source
Description: as §1

[4] = biological target: rat apo-sGC (H105F) (rat) (UniProt P19686); assay: SPR
[5] = biological target: Human apo-sGC (H105F) (human) (UniProt Q02108); assay: SPR
[6] = biological target: rat apo-sGC (H105F) (rat) (UniProt P19686); assay: capture ELISA: IgG coated at 5 ug/mL, rat apo-sGC (H105F) titrated, streptavidin-HRP, OD 450 nm; the axis gives the sGC concentration

Sequence of Human apo-sGC (H105F) (human) (Q02108 whole entry, stated change not applied): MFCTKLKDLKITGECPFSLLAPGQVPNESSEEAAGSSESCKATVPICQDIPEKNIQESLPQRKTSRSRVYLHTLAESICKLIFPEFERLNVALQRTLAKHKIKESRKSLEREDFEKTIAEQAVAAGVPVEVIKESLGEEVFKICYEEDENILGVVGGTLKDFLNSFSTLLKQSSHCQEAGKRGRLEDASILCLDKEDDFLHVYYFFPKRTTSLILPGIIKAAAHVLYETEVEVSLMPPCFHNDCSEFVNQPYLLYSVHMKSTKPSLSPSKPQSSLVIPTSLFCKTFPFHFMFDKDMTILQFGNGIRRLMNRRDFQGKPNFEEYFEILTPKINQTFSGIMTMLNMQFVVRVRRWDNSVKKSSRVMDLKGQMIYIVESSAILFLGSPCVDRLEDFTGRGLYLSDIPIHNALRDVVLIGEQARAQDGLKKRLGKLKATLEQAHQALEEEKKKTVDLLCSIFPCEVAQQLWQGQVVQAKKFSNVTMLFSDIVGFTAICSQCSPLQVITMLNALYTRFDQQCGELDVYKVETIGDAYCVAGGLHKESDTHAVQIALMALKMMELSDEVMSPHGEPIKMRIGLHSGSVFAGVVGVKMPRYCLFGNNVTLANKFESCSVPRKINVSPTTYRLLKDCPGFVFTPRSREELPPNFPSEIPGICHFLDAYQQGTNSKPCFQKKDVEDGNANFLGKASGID

EC50 (read off the curve) [1]: ~20 nM | Kd [2]: 50 nM | EC50 (read off the curve) [3]: ~50 nM
B1: TPP15715 (antibody, human IgG1, lambda, V domains shown)
VH: EVQLLESGGGLVQPGGSLRLSCAASGFTFSNYAMSWVRQAPGKGLEWVSAISGSGGSTFYADSVKGRFTISRDNSKNTLYLQMNSLRAEDTAVYYCATDGTDAFDIWGQGTLVTVSS
VL: QSVLTQPPSASGTPGQRVTISCTGSSSNIGAGYDVHWYQQLPGTAPKLLIYENDRRPSGVPDRFSGSKSGTSASLAISGLRSEDEADYYCAAWDDSLNGPLFGGGTKLTVLG
notes: also called 5H10; TPP15715_5H10

Kd [4]: 67 nM | Kd [5]: 146 nM | EC50 (read off the curve) [6]: 70 nM
B2: TPP16284 (antibody, human IgG1, lambda, V domains shown)
VH: EVQLLESGGGLVQPGGSLRLSCAASGFTFSSYAMSWVRQAPGKGLEWVSGVSWNGSRTHYADSVKGRFTISRDNSKNTLYLQMNSLRAEDTAVYYCARERLGKWYFDLWGRGTLVTVSS
VL: QSVLTQPPSASGTPGQRVTISCSGSSSNIGNNAVNWYQQLPGTAPKLLIYGNSNRPSGVPDRFSGSKSGTSASLAISGLRSEDEADYYCQSYDSSLSGVFGGGTKLTVLG
